Target: T1, estrogen receptor α (ERα) (human, UniProt P03372 1-595)
T1 construct: Used as 35S-methionine-labelled protein from rabbit reticulocyte lysate, as purified recombinant ERα, and in whole-cell extract of transfected COS cells; also called NR3A1
T1 sequence (looked up): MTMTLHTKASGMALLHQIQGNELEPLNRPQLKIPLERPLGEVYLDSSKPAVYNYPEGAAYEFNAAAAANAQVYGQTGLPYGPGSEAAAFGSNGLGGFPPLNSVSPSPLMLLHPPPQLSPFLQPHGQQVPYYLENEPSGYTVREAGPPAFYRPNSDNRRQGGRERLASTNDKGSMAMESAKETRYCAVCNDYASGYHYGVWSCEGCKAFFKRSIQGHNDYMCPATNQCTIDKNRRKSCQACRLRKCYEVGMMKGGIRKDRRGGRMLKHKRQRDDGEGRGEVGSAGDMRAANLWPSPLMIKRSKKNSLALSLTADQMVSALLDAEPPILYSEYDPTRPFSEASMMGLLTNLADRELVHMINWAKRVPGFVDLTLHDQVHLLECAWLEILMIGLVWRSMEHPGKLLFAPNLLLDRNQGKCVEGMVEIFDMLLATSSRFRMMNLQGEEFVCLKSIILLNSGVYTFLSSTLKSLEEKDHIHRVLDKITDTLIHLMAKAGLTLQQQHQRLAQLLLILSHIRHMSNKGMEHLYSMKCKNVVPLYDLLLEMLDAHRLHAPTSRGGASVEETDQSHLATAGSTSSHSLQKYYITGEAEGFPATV
Assay: GST-fusion protein binding experiment with purified recombinant ERα (data referred to Johnston 1996 thesis)

B1: GST-TFIIB (other, UniProt Q00403 1-316, looked up)
chain: MASTSRLDALPRVTCPNHPDAILVEDYRAGDMICPECGLVVGDRVIDVGSEWRTFSNDKATKDPSRVGDSQNPLLSDGDLSTMIGKGTGAASFDEFGNSKYQNRRTMSSSDRAMMNAFKEITTMADRINLPRNIVDRTNNLFKQVYEQKSLKGRANDAIASACLYIACRQEGVPRTFKEICAVSRISKKEIGRCFKLILKALETSVDLITTGDFMSRFCSNLCLPKQVQMAATHIARKAVELDLVPGRSPISVAAAAIYMASQASAEKRTQKEIGDIAGVADVTIRQSYRLIYPRAPDLFPTDFKFDTPVDKLPQL
notes: not shown: glutathione S-transferase encoded by the pGEX vector
**Q.** Does B1 bind?
**A.** binds
